Here are results for nine molecules from paper PMC9304170, “Chloromethyl Glycosides as Versatile Synthons to Prepare Glycosyloxymethyl‐Prodrugs” (Chemistry (Weinheim an Der Bergstrasse, Germany), 2022).

Values joined by “and” are separate entries in the source; they are usually repeats but may differ in a detail not shown here. Equal values may be shown once.

For series [1], the target named is T1, Agrobacterium Sp. β-glucosidase (Abg, GH1 family) (Agrobacterium sp., UniProt P12614).
T1 sequence (P12614 1-459): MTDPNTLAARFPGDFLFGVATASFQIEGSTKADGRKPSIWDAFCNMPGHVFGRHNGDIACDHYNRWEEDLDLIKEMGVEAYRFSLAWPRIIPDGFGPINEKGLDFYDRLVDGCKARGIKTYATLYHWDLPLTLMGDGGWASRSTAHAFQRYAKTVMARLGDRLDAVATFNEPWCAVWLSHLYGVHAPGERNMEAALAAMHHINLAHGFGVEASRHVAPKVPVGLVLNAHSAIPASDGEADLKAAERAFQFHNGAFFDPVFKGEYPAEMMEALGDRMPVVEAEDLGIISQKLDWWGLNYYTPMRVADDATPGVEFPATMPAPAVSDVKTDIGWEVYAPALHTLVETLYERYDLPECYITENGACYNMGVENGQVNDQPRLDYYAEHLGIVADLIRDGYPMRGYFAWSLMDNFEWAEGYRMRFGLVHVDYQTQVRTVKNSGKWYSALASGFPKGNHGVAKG
Description: Michaelis-Menten kinetics of enzymatic hydrolysis, release of 4-nitrophenol (absorbance at 405 nm). In kind it is biochemical. The settings on record: transglycosylation suggested for rate enhancement. On the procedure:
(§1) Enzymatic reactions were performed in triplo at pH 6.8 (50 mM final concentration) containing 0.1 % bovine serum albumin at 37 °C.[25] Aliquots of 100 μL were taken at constant time periods and added to 100 μL aq. NaOH (0.1 M) in a 96‐well microtitre plate to quench the enzymatic reaction and ensure maximal absorption of sodium 4‐nitrophenolate as outlined in previous studies.[28] The initial rate (vo) was determined normalized on the ∼0.1 U/mL enzyme concentration and plotted against substrate concentration [S]. Non‐linear regression analysis based on 7–10 concentrations depending on the glycoside, was used to determine the Km and k cat values. k cat values were normalized based on the enzyme concentration. […]
(§2) Kinetic evaluation of 4- nitrophenyloxymethyl glycosides. Enzyme reactions were performed in triplicate. Substrate samples (final volume of 1 mL) were prepared by diluting carefully prepared substrate stock solutions with sodium phosphate buffer pH 6.8 (50 mM final concentration) containing 0.1% bovine serum albumin and milliQ to the desired concentration. The samples were equilibrated at 37 °C for at least 5 minutes before the enzyme in 50 mM buffer (2 U per ml, 50 uL) was added. Aliquots of 100 µL were taken at constant time periods and added to 100 µL aq. NaOH (0.1 M) in a 96 well microtiter plate to quench the enzymatic reaction. The absorbance was measured at 405 nm using a Tecan Spark M10 plate reader.
(§3) Negative assay controls contained no substrate or no enzyme. Rates of the enzymatic reactions were determined at 7 different substrate concentrations from 0.02 – 1.0 mM. Km and kcat values were determined by nonlinear regression analysis using Graphpad 5.0 (GraphPad Software, San Diego, California USA, www.graphpad.com) for fitting the data. Calibration samples at varying concentration (0.05 – 0.5 mM) were prepared similar to the substrate samples in the enzyme reactions by diluting a carefully prepared 4-nitrophenol stock solution with sodium phosphate buffer pH 6.8 (50 mM final concentration) containing 0.1% bovine serum albumin and milliQ to the desired concentration. […]
(§4) (T1 determined as 9.13 sec.) was used. Dynamic measurements were started by heating the sample in the NMR to 37 °C and recording a t0-spectrum. Subsequently Abg (V = 2.05 uL, 0.82 U, 1.64 U/mL) was added to the sample outside of the NMR. The sample was mixed by shaking and quickly reintroduced to the NMR.
(§5) The time of enzyme addition was recorded as t0. Spectra were recorded over an appropriate time- scale with the relaxation delay at 3*T1 of the internal standard.
(§6) In vivo experiments were performed at the company Charles Rivers (Den Bosch, The Netherlands) in accordance with Dutch law of animal experiments and under approval of the central committee of animal experiments (CCD). Relative and absolute bioavailability may be determined in different animal models and according to different protocols.
(§7) The following protocol is typical for determining bioavailability in female Beagle dogs. The animals were deprived from food over a time period of 8 h prior to administration and 2 h after administration of the test molecules. Water was supplied without limitation. On the study day, the animals received test molecule 10h […]
(§8) ethanol and 0.9% NaCl + 5% mannitol in water. Blood samples were collected from the jugular vein on the […]

Series [2] has as its target T2, Abg (Agrobacterium Sp. β-glucosidase) (Agrobacterium sp., UniProt P12614).
T2 sequence (P12614 1-459): T1 sequence (P12614 1-459)
The series can be described thus: Enzymatic conversion of glycoside-drug conjugates at 200 μM analyzed by HPLC. In kind it is biochemical. The settings on record: for Product release: 200 μM substrate, 50 mM phosphate buffer pH 6.8, Abg 0.1 U/mL; for Product release / Enzymatic hydrolysis by Abg (in words): 37 °C; for Enzymatic hydrolysis by Abg (in words): HPLC.

Substrate in series [3]: O=[N+]([O-])c1ccc(OCO[C@@H]2O[C@H](CO)[C@H](O)[C@H](O)[C@H]2O)cc1
Description: Michaelis-Menten kinetics of enzymatic hydrolysis, release of 4-nitrophenol (absorbance at 405 nm). Conditions: other: 4-nitrophenyloxymethyl glycosides 5a-f, phosphate buffer pH 6.8, 0.1 % BSA, 37 °C, N.A: no activity. In kind it is biochemical, Agrobacterium Sp. On the procedure: as §1, §2, §3, §4, §5, §6, §7, §8

Substrate in series [4]: C[C@H]1O[C@@H](Oc2ccc([N+](=O)[O-])cc2)[C@H](O)[C@@H](O)[C@H]1O
The series is described as above. In kind it is biochemical, Agrobacterium Sp. The settings on record: other: 4-nitrophenyl glycosides 6a-f, phosphate buffer pH 6.8, 0.1 % BSA, 37 °C. The protocol:
as §1, §2, §3, §4, §5, §6, §7, §8

Substrate in series [5]: O=[N+]([O-])c1ccc(OCO[C@@H]2O[C@H](CO)[C@@H](O)[C@H](O)[C@H]2O)cc1
The description is as above. Format: biochemical, Agrobacterium Sp. The settings on record: other: 4-nitrophenyloxymethyl glycosides 5a-f, phosphate buffer pH 6.8, 0.1 % BSA, 37 °C, N.A: no activity. The protocol:
as §1, §2, §3, §4, §5, §6, §7, §8

Substrate in series [6]: C[C@H]1O[C@@H](OCOc2ccc([N+](=O)[O-])cc2)[C@H](O)[C@@H](O)[C@@H]1O
The description is as above. In kind it is biochemical, Agrobacterium Sp. Conditions: other: 4-nitrophenyloxymethyl glycosides 5a-f, phosphate buffer pH 6.8, 0.1 % BSA, 37 °C, N.A: no activity. The protocol:
as §1, §2, §3, §4, §5, §6, §7, §8

Substrate in series [7]: C[C@H]1O[C@@H](Oc2ccc([N+](=O)[O-])cc2)[C@H](O)[C@@H](O)[C@@H]1O
The series is described as above. Format: biochemical, Agrobacterium Sp. The settings on record: other: 4-nitrophenyl glycosides 6a-f, phosphate buffer pH 6.8, 0.1 % BSA, 37 °C. On the procedure:
as §1, §2, §3, §4, §5, §6, §7, §8

Substrate in series [8]: O=[N+]([O-])c1ccc(O[C@@H]2OC[C@H](O)[C@H](O)[C@H]2O)cc1
The description is as above. Format: biochemical, Agrobacterium Sp. The settings on record: other: 4-nitrophenyl glycosides 6a-f, phosphate buffer pH 6.8, 0.1 % BSA, 37 °C. The protocol:
as §1, §2, §3, §4, §5, §6, §7, §8

Substrate in series [9]: C[C@H]1O[C@@H](OCOc2ccc([N+](=O)[O-])cc2)[C@H](O)[C@@H](O)[C@H]1O
The description is as above. Format: biochemical, Agrobacterium Sp. The settings on record: other: 4-nitrophenyloxymethyl glycosides 5a-f, phosphate buffer pH 6.8, 0.1 % BSA, 37 °C, N.A: no activity. On the procedure:
as §1, §2, §3, §4, §5, §6, §7, §8

Substrate in series [10]: O=[N+]([O-])c1ccc(O[C@@H]2O[C@H](CO)[C@H](O)[C@H](O)[C@H]2O)cc1
Described as above. Format: biochemical, Agrobacterium Sp. Conditions: other: 4-nitrophenyl glycosides 6a-f, phosphate buffer pH 6.8, 0.1 % BSA, 37 °C. On the procedure: as §1, §2, §3, §4, §5, §6, §7, §8

Substrate in series [11]: O=[N+]([O-])c1ccc(O[C@@H]2OC[C@@H](O)[C@H](O)[C@H]2O)cc1
The description is as above. Format: biochemical, Agrobacterium Sp. Conditions: other: 4-nitrophenyl glycosides 6a-f, phosphate buffer pH 6.8, 0.1 % BSA, 37 °C. The protocol: as §1, §2, §3, §4, §5, §6, §7, §8

Substrate in series [12]: O=[N+]([O-])c1ccc(O[C@@H]2O[C@H](CO)[C@@H](O)[C@H](O)[C@H]2O)cc1
The description is as above. Format: biochemical, Agrobacterium Sp. The settings on record: other: 4-nitrophenyl glycosides 6a-f, phosphate buffer pH 6.8, 0.1 % BSA, 37 °C. On the procedure:
as §1, §2, §3, §4, §5, §6, §7, §8

Setting [13] is: 200 μM, in presence of 5 % ethanol.
Where [14] appears, read: 0.5 h, in presence of 5 % ethanol.
Where [15] appears, read: 1.0 h, in presence of 5 % ethanol.
The mark [16] stands for this setting: 2.0 h, in presence of 5 % ethanol.

For the molecule `C[C@H]1O[C@@H](Oc2ccc([N+](=O)[O-])cc2)[C@H](O)[C@@H](O)[C@@H]1O` [6 b], the “V0 at high substrate concentration (in words)” value in series [1] is “over expected rate‐enhancement”.

With `O=[N+]([O-])c1ccc(O[C@@H]2OC[C@@H](O)[C@H](O)[C@H]2O)cc1` [6 c, 4‐nitrophenyl xylose], the “V0 at high substrate concentration (in words)” value in series [1] is “over expected rate‐enhancement”.

`O=[N+]([O-])c1ccc(O[C@@H]2O[C@H](CO)[C@H](O)[C@H](O)[C@H]2O)cc1` [6 d]: the “V0 at high substrate concentration (in words)” value in series [1] is given as “followed a horizontal asymptote”.

For `C[C@H]1O[C@@H](Oc2ccc([N+](=O)[O-])cc2)[C@H](O)[C@@H](O)[C@H]1O` [6 e], the “V0 at high substrate concentration (in words)” value in series [1] is listed as “followed a horizontal asymptote”.

As to `OC[C@H]1O[C@@H](OCOc2ccccc2)[C@H](O)[C@@H](O)[C@@H]1O` [10 a], the Product release was 38.6±2.3% in [2] (0.5 h); 66.0±2.0% in [2] (1.0 h); 90% and 89.8±1.7% in series [2] (2.0 h). For the same molecule, the “Increase in conversion compared to direct conjugate Glc−Ph” value in series [2] (after two hours, 200 μM, Abg) is reported as “twenty”.

Turning to `CC(C)c1cccc(C(C)C)c1OCO[C@@H]1O[C@H](CO)[C@@H](O)[C@H](O)[C@H]1O` [10 b], the “Enzymatic hydrolysis by Abg (in words)” value in series [2] (setting [13]) is “not hydrolyzed”. The Product release was 1.95±0.3% in series [2] (setting [14]), 1.73±0.3% in [2] (setting [15]) and 1.66±0.4% in series [2] (setting [16]).

As for `CCCCc1nc(Cl)c(CO)n1Cc1ccc(-c2ccccc2-c2nnn(CO[C@@H]3O[C@H](CO)[C@@H](O)[C@H](O)[C@H]3O)n2)cc1` [10 i], the “Enzymatic hydrolysis by Abg (in words)” value in series [2] (setting [13]) is on record as “hydrolyzed slower”. The Product release in series [2] (setting [14]) is 16.7±4.8%; in series [2] (setting [15]) it was 39.3±2.2%; in [2] (setting [16]), 51.3±4%; in [2] (24 h, in presence of 5 % ethanol), 74.7±10%.

Regarding `OC[C@H]1O[C@@H](Oc2ccccc2)[C@H](O)[C@@H](O)[C@@H]1O` [Glc−Ph, phenyl β‐D‐glucopyranoside, reference compound], the Product release in series [2] (0.5 h) is 1.9±0.04%; in series [2] (1.0 h), 3.0±0.30%; in series [2] (2.0 h), 5.2±0.16%; in series [2] (24 h) it was 28% and 27.7±5.5%.

B1: Agrobacterium Sp. β-glucosidase (Abg, GH1 family) (Agrobacterium sp. ATCC 21400) (protein)
chain: T1 sequence (P12614 1-459)
On to B1, for which the Michaelis constant (Km) amounted to 1870 µM in series [3]; 233 µM in series [4]; 84 µM in series [5]; 239 µM in series [6]; 169 µM in series [7]; 175 µM in [8]. The Km stood at 202 µM in series [9], 3450 µM in [10], 244 µM in series [11] and 108 µM in series [12]. The kcat in [3] stood at 3.71 s⁻¹; in [4], 60.3 s⁻¹; in series [5], 18.4 s⁻¹; in series [6], 0.796 s⁻¹; in [7] it was 29.5 s⁻¹; in series [8], 1.03 s⁻¹. Besides, the turnover number (kcat) was 7.18 s⁻¹ in series [9], 63.6 s⁻¹ in series [10], 0.580 s⁻¹ in series [11] and 38.8 s⁻¹ in [12]. Besides, the catalytic efficiency (kcat/Km) in series [3] stood at 1980 M⁻¹ s⁻¹; in series [4] it was 259000 M⁻¹ s⁻¹; in [5], 219000 M⁻¹ s⁻¹; in series [6], 3330 M⁻¹ s⁻¹; in series [7], 175000 M⁻¹ s⁻¹; in series [8], 5890 M⁻¹ s⁻¹. Besides, the kcat/Km was 35500 M⁻¹ s⁻¹ in [9], 18400 M⁻¹ s⁻¹ in series [10], 2380 M⁻¹ s⁻¹ in [11] and 359000 M⁻¹ s⁻¹ in [12].

The term Km denotes the substrate concentration at which the rate is half of its maximum. The term kcat denotes the maximal rate divided by the concentration of active sites. One may read the kcat/Km as the second-order rate constant that governs catalysis at low substrate concentration.
